Measurements from paper PMC6875872 (The Journal of Physical Chemistry. B, 2019).

Target: the molecule itself
Test: SEC + other: DLS + other: TEM

B1: cowpea chlorotic mottle virus (CCMV) capsid protein (natural protein, UniProt P03601 1-190, looked up)
chain: MSTVGTGKLTRAQRRAAARKNKRNTRVVQPVIVEPIASGQGKAIKAWTGYSVSKWTASCAAAEAKVTSAITISLPNELSSERNKQLKVGRVLLWLGLLPSVSGTVKSCVTETQTTAAASFQVALAVADNSKDVVAAMYPEAFKGITLEQLTADLTIYLYSSAALTEGDVIVHLEVEHVRPTFDDSFTPVY
- stoichiometry N: 60
